# Laboratory results: patent US20180155413A1 (AstraZeneca / MedImmune, published 2018)
# Read-outs that look alike come from different tables or passages of the source.
# What was measured:
# Test in all cases: cell-based or functional assay
# [1] = molecular target: HA of ca B/Brisbane/60/2008 (victoria) (influenza B virus)
# [2] = molecular target: HA of B/Phuket/3073/2013 (yamagata) (influenza B virus)
# [3] = molecular target: HA of A/Hong Kong/2212/2010 (H1N1) (influenza A virus)
# [4] = molecular target: HA of A/New York/39/2012 (H3N2) (influenza A virus)
# [5] = molecular target: HA of B/Florida/4/2006 (yamagata) (influenza B virus)
# [6] = molecular target: HA of ca B/Victoria/504/2000 (yamagata) (influenza B virus)
# [7] = molecular target: HA of B/Hong Kong/330/2001 (victoria) (influenza B virus)
# [8] = molecular target: HA of B/Wisconsin/1/2010 (yamagata) (influenza B virus)
# [9] = molecular target: HA of B/Yamanashi/166/98 (yamagata) (influenza B virus)
# [10] = molecular target: HA of B/Ohio/1/2005 (victoria) (influenza B virus)
# [11] = molecular target: HA of B/Sichuan/379/99 (yamagata) (influenza B virus)
# [12] = molecular target: HA of B/New Jersey/01/2012 (victoria) (influenza B virus)
# [13] = molecular target: HA of B/Texas/2/2013 (victoria) (influenza B virus)
# [14] = molecular target: HA of B/Nevada/3/2011 (victoria) (influenza B virus)
# [15] = molecular target: HA of B/Wisconsin/5/2013 (victoria) (influenza B virus)
# [16] = molecular target: HA of B/Malaysia/2506/2004 (victoria) (influenza B virus)
# [17] = molecular target: HA of B/Yamagata/16/88 (yamagata) (influenza B virus)
# [18] = molecular target: HA of ca B/Beijing/243/97 (victoria) (influenza B virus)
# [19] = molecular target: HA of ca B/Georgia/02/98 (yamagata) (influenza B virus)
# [20] = molecular target: HA of ca A/chicken/Hong Kong/G9/97 (H9N2) (influenza A virus)
# [21] = molecular target: HA of ca B/Ann Arbor/1/66 (influenza B virus)
# [22] = molecular target: HA of B/Arizona/8/2013 (yamagata) (influenza B virus)
# [23] = molecular target: HA of B/Lee/40 (influenza B virus, UniProt P03460 16-584)
# [24] = molecular target: HA of B/Hong Kong/5/72 (influenza B virus)
# [25] = molecular target: HA of B/Florida/4/2006 (yamagata) (influenza B virus); remark: listed apart in the source
# [26] = molecular target: HA of A/California/07/2009 (H1N1) (influenza A virus)
# [27] = molecular target: HA of A/Solomon Island/3/2006 (H1N1) (influenza A virus)
# [28] = molecular target: HA of B/Sichuan/379/99 (yamagata) (influenza B virus); remark: listed apart in the source
# [29] = molecular target: HA of ca A/Panama/2007/99 (H3N2) (influenza A virus)
# [30] = molecular target: HA of A/Beijing/262/95 (H1N1) (influenza A virus)
# [31] = molecular target: HA of A/Victoria/3/75 (H3N2) (influenza A virus)
# [32] = molecular target: HA of ca B/Ann Arbor/2/94 (yamagata) (influenza B virus)
# [33] = molecular target: HA of B/Hong Kong/330/2001 (victoria) (influenza B virus); remark: listed apart in the source
# [34] = molecular target: HA of B/Yamanashi/166/98 (yamagata) (influenza B virus); remark: listed apart in the source
# [35] = molecular target: HA of B/Ohio/1/2005 (victoria) (influenza B virus); remark: listed apart in the source
# [36] = molecular target: HA of B/Sichuan/379/99 (yamagata) (influenza B virus); remark: listed apart in the source
# [37] = molecular target: HA of ca B/Johannesburg/5/99 (yamagata) (influenza B virus)
# [38] = molecular target: HA of B/Shanghai/361/02 (yamagata) (influenza B virus)
# [39] = molecular target: HA of ca B/Georgia/02/98 (yamagata) (influenza B virus); remark: listed apart in the source
# [40] = molecular target: HA of ca B/Ann Arbor/1/66 (influenza B virus); remark: listed apart in the source
# [41] = molecular target: HA of B/Hong Kong/5/72 (influenza B virus); remark: listed apart in the source
# [42] = molecular target: HA of A/California/07/2009 (H1N1) (influenza A virus); remark: listed apart in the source
# [43] = molecular target: HA of A/Hong Kong/8/68 (H3N2) (influenza A virus)
# HA of B/Lee/40, sequence (P03460 16-584 limits assumed): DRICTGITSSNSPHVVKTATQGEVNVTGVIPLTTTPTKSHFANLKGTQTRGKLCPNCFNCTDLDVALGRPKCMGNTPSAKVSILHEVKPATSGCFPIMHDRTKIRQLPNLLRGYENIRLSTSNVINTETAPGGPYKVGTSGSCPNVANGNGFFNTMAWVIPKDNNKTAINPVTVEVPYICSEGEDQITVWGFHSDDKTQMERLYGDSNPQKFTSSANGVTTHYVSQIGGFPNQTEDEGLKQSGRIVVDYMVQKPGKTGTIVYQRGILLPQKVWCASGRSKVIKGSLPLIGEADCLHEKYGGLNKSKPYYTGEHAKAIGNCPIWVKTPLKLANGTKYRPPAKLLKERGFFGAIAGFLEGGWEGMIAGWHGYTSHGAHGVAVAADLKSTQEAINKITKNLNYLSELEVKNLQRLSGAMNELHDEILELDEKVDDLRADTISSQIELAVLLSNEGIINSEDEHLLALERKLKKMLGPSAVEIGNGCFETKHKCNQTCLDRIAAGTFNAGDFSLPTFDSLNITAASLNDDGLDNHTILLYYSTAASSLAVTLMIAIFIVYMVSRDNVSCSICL
binder,measurement,setting,value
GL20/39 BiS4 100/44 (bispecific antibody) light: DIQMTQSPSSLSASVGDRVTITCRTSQSLSSYTHWYQQKPGKAPKLLIYAASSRGSGVPSRFSGSGSGTDFTLTISSLQPEDFATYYCQQSRTFGQGTKVEIKRTVAAPSVFIFPPSDEQLKSGTASVVCLLNNFYPREAKVQWKVDNALQSGNSQESVTEQDSKDSTYSLSSTLTLSKADYEKHKVYACEVTHQGLSSPVTKSFNRGEC heavy: not shown,Neutralization (IC50),[1],51.8 nM
same,Neutralization (IC50),[2],15.4 nM
same,Neutralization (IC50),[3],0.4 nM
same,Neutralization (IC50),[4],0.5 nM
same,Neutralization (IC50),[5],1.4 nM
same,Neutralization (IC50),[6],1.3 nM
same,Neutralization (IC50),[7],66.9 nM
same,Neutralization (IC50),[8],4.4 nM
same,Neutralization (IC50),[9],0.3 nM
same,Neutralization (IC50),[10],18.7 nM
same,Neutralization (IC50),[11],12.1 nM
same,Neutralization (IC50),[12],23 nM
same,Neutralization (IC50),[13],13.8 nM
same,Neutralization (IC50),[14],38.2 nM
same,Neutralization (IC50),[15],14.5 nM
same,Neutralization (IC50),[16],33 nM
same,Neutralization (IC50),[17],1.3 nM
same,Neutralization (IC50),[18],25.9 nM
same,Neutralization (IC50),[19],1 nM
same,Neutralization (IC50),[20],1.6 nM
same,Neutralization (IC50),[21],12.8 nM
same,Neutralization (IC50),[22],2.2 nM
same,Neutralization (IC50),[23],1 nM
same,Neutralization (IC50),[24],5.7 nM
same,Neutralization (IC50),[25],3.6 nM
same,Neutralization (IC50),[26],20.6 nM
same,Neutralization (IC50),[27],4.7 nM
same,Neutralization (IC50),[28],7.8 nM
same,Neutralization (IC50),[29],37.3 nM
same,Neutralization (IC50),[30],11.9 nM
same,Neutralization (IC50),[31],15.9 nM
same,Hemagglutination Inhibition Titer,[32],61 nM
same,Hemagglutination Inhibition Titer,[33],244 nM
same,Hemagglutination Inhibition Titer,[34],122 nM
same,Hemagglutination Inhibition Titer,[35],244 nM
same,Hemagglutination Inhibition Titer,[36],122 nM
same,Hemagglutination Inhibition Titer,[37],122 nM
same,Hemagglutination Inhibition Titer,[38],91 nM
same,Hemagglutination Inhibition Titer,[39],122 nM
same,Hemagglutination Inhibition Titer,[40],244 nM
same,Hemagglutination Inhibition Titer,[41],244 nM
"GL20 IgG (antibody, V domains shown) VH: QVQLQQSGPGLVKPSQTLSLTCAISGDSVSSYNAVWNWIRQSPSRGLEWLGRTYYRSGWYNDYAESVKSRITINPDTSKNQFSLQLNSVTPEDTAVYYCARSGHITVFGVNVDAFDMWGQGTMVTVSS VL: DIQMTQSPSSLSASVGDRVTITCRTSQSLSSYTHWYQQKPGKAPKLLIYAASSRGSGVPSRFSGSGSGTDFTLTISSLQPEDFATYYCQQSRTFGQGTKVEIK","ADCC: NK cell killing of infected A549 cells (LDH release), IC50",[42],0.024 nM
same,"ADCC: NK cell killing of infected A549 cells (LDH release), IC50",[43],0.018 nM
same,Neutralization (IC50),[25],> 1000 nM
same,Neutralization (IC50),[26],18.6 nM
same,Neutralization (IC50),[27],4.4 nM
same,Neutralization (IC50),[28],> 1000 nM
same,Neutralization (IC50),[29],46.9 nM
same,Neutralization (IC50),[30],8.3 nM
same,Neutralization (IC50),[31],12.9 nM
